Source: patent publication US20160368979A1 (CHEMOMAB, published 2016)

Legend:
Eotaxin 2 (CCL24), human [1] = target: T1, Eotaxin 2 (CCL24), human (human, UniProt O00175 27-119); assay: Biacore SPR (eotaxin 2 immobilised on CM-5 chip) and ELISA
T1 construct: In the pulldown it is the circulating protein in human serum; also called Eox2; EOX-2
T1 sequence: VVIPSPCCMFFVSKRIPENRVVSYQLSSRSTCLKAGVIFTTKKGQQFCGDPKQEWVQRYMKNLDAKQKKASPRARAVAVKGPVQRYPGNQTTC
Procedure: The affinity constant of hCM101 or murine CM101 was evaluated using Biacore T100. This method uses Surface Plasmon Resonance (SPR) electrooptical phenomenon to measure the binding constants and on/off rates between binding partners. Eotaxin 2 was covalently immobilized on a surface of a CM-5 chip, and a solution of CM101 was passed over the surface. The changes in SPR angle were measured and enabled to determine the KD.

Eotaxin 2 (CCL24), human [2] = target: T1, Eotaxin 2 (CCL24), human; assay: cell-based or functional assay
Eotaxin 1 (CCL11), human = Eotaxin 1 (CCL11), human (human, UniProt P51671 24-97); assay: cell-based or functional assay
RANTES (CCL5), human = target: T2, RANTES (CCL5), human (human, UniProt P13501 24-91); assay: cell-based or functional assay
T2 sequence: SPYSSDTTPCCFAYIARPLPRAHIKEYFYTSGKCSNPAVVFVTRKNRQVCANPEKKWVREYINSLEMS

Sequence of Eotaxin 1 (CCL11), human (P51671 24-97): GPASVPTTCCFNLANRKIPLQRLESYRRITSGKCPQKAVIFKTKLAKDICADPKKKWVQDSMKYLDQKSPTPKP

B1: hCM101 (fully humanized anti-eotaxin-2 monoclonal antibody, humanized variant VH1/VK3) (antibody, human IgG1, V domains shown)
VH: QIQLVQSGPELKKPGASVKVSCRASGYPFTNSGMNWVKQAPGKGLKWMGWINTYNGEPTYTDDFKGRFAFSLETSASTAYLQINNLRNEDTATYFCASHSYGSSYAMDNWGQGTSVTVSS
VL: DIVLTQSPDSLAVSLGERATINCKASQSVDYDGDSYMNWYQQKPGQPPKLLIYVASNLKSGIPARFSGSGSGTDFTLTISSLQPEDFATYYCQQSNEEPWTFGGGTKVEIK
notes: also called VH1/K3; fully humanized CM101
Eotaxin 2 (CCL24), human [1]
  Kd: 3 nM
Eotaxin 2 (CCL24), human [2]
  migration of CD14 negative cells towards Eotaxin 1, 2 and Rantes, % reduction at the high dose: ~90%
Eotaxin 1 (CCL11), human
  migration of CD14 negative cells towards Eotaxin 1, 2 and Rantes, % reduction at the high dose: ~90%
RANTES (CCL5), human
  migration of CD14 negative cells towards Eotaxin 1, 2 and Rantes, % reduction at the high dose: ~90%
